Data as given in the supplement of paper PMC12764529.
± gives the half width of the 95% confidence interval.

Legend:
[1] = folding stability dG unfold (combined trypsin and chymotrypsin); higher = more stable
Method in brief: (§1)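 Designed mini-proteins with no cysteine and under 80 residues were kept only if AlphaFold2 dimer inter-PAE was above 15. In a PA-tagged cDNA display construct, they were digested with trypsin and chymotrypsin and then sequenced. K50 was inferred by Bayesian fitting of counts, and unfolding free energy was derived per protease or combined against a sequence-predicted unfolded-state K50 and a shared folded-state K50.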

[2] = folding stability dG unfold from chymotrypsin proteolysis; higher = more stable
Method in brief: as §1

[3] = folding stability dG unfold from trypsin proteolysis; higher = more stable
Method in brief: as §1

Row | Sequence | folding stability dG unfold [1] [kcal/mol] | folding stability dG unfold [2] [kcal/mol] | folding stability dG unfold [3] [kcal/mol]
1 | SAGSMPPSTTTSEEVTVGGKKVKRTTTVYRAPNGTPSVTSTYTLGETPGVEDPLSGKALTPEERAAAAASAG [r5_138_JUSTAS] | 0.668 ± 0.16 | 0.564 ± 0.28 | 0.417 ± 0.21
2 | SAGGSAGGSLKPGQPYIMIRIKIQHPNGNTRTFNIMVPWNDIPQILDFLESHGFKIKDIEIFPSAGGSAGGS [r12_986_TrROS] | 5.09 ± 0.2 | 5.42 ± 0.17 | 3.94 ± 0.21
3 | SAMKTYTLPNATITVETLPGDNTIVVTVTDPESGKTTTTTVSLDDPSLTIENIIARIEEQIKAGKPVSLSAG [r14_157_JUSTAS] | 2.16 ± 0.14 | 2.16 ± 0.054 | 2.33 ± 0.1
4 | SAGGDPSATPVVVEFTLPDGARAVATTFPSGVVVARVFNPVTGRTTEVTVTVVPESATATVTVRPNPDSAGG [r13_822_TrMRF] | 1.02 ± 0.053 | 1.13 ± 0.067 | 0.762 ± 0.027
5 | SAGEEKEAKALAEQYAAEFAPKLGMKYEVPEVKVEKDEKTGKITVTVTVKFTFPEPRTVTKKFTIVVPKSAG [r5_381_JUSTAS] | 2.14 ± 0.27 | 1.61 ± 0.11 | 2.4 ± 0.14
6 | SAGGSAGGSAMRLRLKVKPGEKVRIRVERDGKVYEFEVTVEEGADEIEIDLPPGVKRIEIEPSAGGSAGGSA [r18_124_TrROS_Hall] | 3.62 ± 0.17 | 3.8 ± 0.095 | 2.76 ± 0.21
7 | SAGGSANWYIKITIEYPNGREWEIPFPFKSVEDVKDQIKNAAREYFPNLPPEDVKIDDIELYPLDDSAGGSA [r15_220_TrROS] | 1.83 ± 0.097 | 2.01 ± 0.04 | 1.3 ± 0.056
8 | SAGGSAGGSAGGMKLVTLPDGKTYPFTSLEEFKEALLKETGKPVDLKNPVIYPVPPGLSSAGGSAGGSAGGS [r10_62_JUSTAS] | 0.99 ± 0.22 | 0.959 ± 0.084 | 0.401 ± 0.14
9 | SDRIEIEIWRHPNWWMIKIKVRDDGEPVGTQSFPVDDGMDIEEIADNLLNRNPNYKVEITEIEPMPPPPGSA [r9_364_TrROS] | 3.36 ± 0.41 | 3.82 ± 0.12 | 2.86 ± 0.16
10 | SADPGDTVELEFWLPPGMNPEFVEQMEDEIRNILRDLGLEVDVKVEPDPDNGYVPVTITITKEQLKDLFSAG [r14_602_TrROS] | 1.82 ± 0.18 | 1.74 ± 0.1 | 1.93 ± 0.12
11 | SAGGSAGGSAGGSMIVEEDPVGPEKVTTVTLPEKDKLVTVTETFLPDGSVVTTTTPVPSSAGGSAGGSAGGS [r4_332_JUSTAS] | 1.96 ± 0.13 | 2 ± 0.25 | 1.8 ± 0.17
12 | SAGGMAVPVKVRDPVNGNWKTLDNIESIDEVVEVDPTDGSRSYFVKLKGSGKWYVVDDPEAVEAAKGSAGGS [r8_206_TrMRF] | 1.12 ± 0.13 | 1.08 ± 0.14 | 1.17 ± 0.064
13 | SAGGSAGPMSVKEYEFEAVVPPGEEEAWVEEYIKKEFKSKIVKIEVKREKLPDGTYRVPVKITVKESAGGSA [r15_138_JUSTAS] | 0.775 ± 0.079 | 0.998 ± 0.12 | 0.433 ± 0.029
14 | SAGGSATIEEIAQEIADNLPPGRKYRAKIYYDGEERTYEFRNPNGFKINITWKNGKIRSIDIEPRPSAGGSA [r15_175_TrROS] | 1.94 ± 0.17 | 2.01 ± 0.16 | 1.63 ± 0.046
15 | SAGGSAGGSAGGELKLLSVEEGPNETYTVSSSDGKLTVYTKPPDGSWKSTSLPLEPELLSAGGSAGGSAGGS [r10_99_JUSTAS] | 0.194 ± 0.1 | 0.317 ± 0.14 | -0.277 ± 0.057
16 | SAGGSAGGSAGGPPDLVKVRFIKVSVKLKEVKENPNGEKEMKLEMKIEEVEVTVRKDDLSAGGSAGGSAGGS [r10_524_TrROS_Hall] | 2.71 ± 0.15 | 2.71 ± 0.12 | 2.61 ± 0.21
17 | SDKIKNMTIEEILKKLPKGVKVGEKVEIEIDGKKITITKVEVVKDKNGKEIKRIYIEVEIDGEKIIIEIESA [r9_279_TrROS_Hall] | 2.69 ± 0.46 | 2.36 ± 0.27 | 2.39 ± 0.23
18 | SAGGSAKVKIYLIKLPPNGNPLEVIKKVKEKGGNAIIVSGPGLHAVIEADEPEEAAKKAKEILEKLSAGGSA [r15_546_TrMRF] | 0.292 ± 0.097 | 0.121 ± 0.2 | 0.361 ± 0.1
19 | MKAHVTVVDLEDRYRARIELELPDGRVLVFEFEFDSWEEAIEFIRGLIAALPEDEVEIDHIEFLPPDGDPSS [r1_169_TrMRF] | 4.46 ± 0.1 | 4.73 ± 0.051 | 3.92 ± 0.091
20 | SAGGSAMEKLKEIPGIERIEVKEDGKIIIHVKMSEEERKKLAEALRKEGKVKIEVVPVEVEEEEEESAGGSA [r15_554_TrROS_Hall] | 2.3 ± 0.11 | 2.03 ± 0.072 | 2.83 ± 0.12
21 | SAERTPVREADIPIPGLPVVVRVRTYAEAVELARKSGVPVVVETVEVEVFLPDGSRVRFPAPGLLVLDGSAG [r14_100_TrMRF] | 1.5 ± 0.036 | 1.55 ± 0.055 | 1.41 ± 0.0081
